US20120065134A1 (PHYLOGICA, published 2012)
Where no end group is shown, it is not given here. PEG = not defined here

B1: CD40L M7_217 (peptide)
peptide: LCEMIAIYVFLWKKVFL
B2: PEGylated CD40L M1_9s (peptide)
peptide: {PEG}-PPRYNLFFLFRFYSSFRRDYLYF
modifications: reading uncertain; also: PEG size and spacer not given here
B3: PEGylated CD40L M1_50s (peptide)
peptide: {PEG}-PRWVRNRFYSLFVPSGVQRGGIHLWFSNWVR
modifications: reading uncertain; also: PEG size and spacer not given here
B4: PEGylated CD40L M1_6s (peptide)
peptide: {PEG}-HPFSIKNVFSIWNFFSVY
modifications: reading uncertain; also: PEG size and spacer not given here
B5: CD40L M8_747 (peptide)
peptide: LAEHAVWSLKCFPDWEWYNINIFGTDDPNHFWVECDGHGKILFPGYPEGYYENHFLHSFELED
B6: PEGylated CD40L M1_42s (peptide)
peptide: {PEG}-HSFVLFGVNVPFNIIDFQMRVKS
modifications: reading uncertain; also: PEG size and spacer not given here
B7: Cys_M1_6S (peptide)
peptide: CHPFSIKNVFSIWNFFSVY
modifications: a cysteine-containing linker (8-amino-3,6-dioxaoctanoyl type, FIG. 1b) may stand between Cys and the peptide; not stated for this molecule
notes: also called cysteine-containing derivative of M1-6S
B8: PEGylated CD40L M1_30s (peptide)
peptide: {PEG}-DAAGREFFQIAGLFSFRHHWWQA
modifications: reading uncertain; also: PEG size and spacer not given here
B9: CD40 ligand (CD40L or CD154) (ligand)
chain: MQKGDQNPQIAAHVISEASSKTTSVLQWAEKGYYTMSNNLVTLENGKQLTVKRQGLYYIYAQVTFCSNREASSQAPFIASLCLKSPGRFERILLRAANTHSSAKPCGQQSIHLGGVFELQPGASVFVNVTDPSQVSHGTGFTSFGLLKL
modifications: biotinylated ('biotinylated phospho-CD40L') in the proximity assay as described in paragraph 342
notes: Species never stated; also called soluble CD40L; CD40L target protein
B10: PEGylated CD40L M1_18s (peptide)
peptide: {PEG}-LPFVPYRSHVLKYGWFFPVQWSIFAVLPFQYLHRSR
modifications: reading uncertain; also: PEG size and spacer not given here

Key:
[1] = target: B9; assay: cell-based or functional assay
[2] = target: B9; assay: Alphascreen proximity assay, inhibition of CD40L/CD40-Fc interaction, unmodified peptide
[3] = target: B9; assay: BLI, Octet Red (ForteBio), label-free
[4] = target: B9; assay: Alphascreen proximity assay, 0.75nM CD40L; peptide titrated; blocked ligand is CD40 (CD40-Fc on acceptor beads)
[5] = target: B9; assay: Alphascreen proximity assay; peptide titrated, axis Phylomer (M); blocked ligand is CD40 (CD40-Fc on acceptor beads)
[6] = target: B9; assay: cell-based or functional assay; remark: listed apart in the source
[7] = target: B9; assay: Alphascreen proximity assay, inhibition of CD40L-CD40 interaction
CD40 on primary B-cells = assay: cell-based or functional assay
CD40L M8_748 = target: T1, CD40L M8_748; assay: BLI, Octet Red (ForteBio), label-free
T1 construct: Base peptide, natural open reading frame

## B1
[1]
  EC50, inhibition of CD40L-induced CD86 expression on primary B-cells (FACS), unmodified peptide: 2500 nM

## B2
[1]
  EC50, inhibition of CD40L-induced CD86 expression on primary B-cells (FACS), PEGylated peptide: 180 nM

## B3
[1]
  EC50, inhibition of CD40L-induced CD86 expression on primary B-cells (FACS), PEGylated peptide: 30 nM

## B4
[1]
  EC50, inhibition of CD40L-induced CD86 expression on primary B-cells (FACS), PEGylated peptide: 1.5 nM

## B5
[2]
  EC50: 197 nM
[3]
  Kd: 8 nM

## B6
[1]
  EC50, inhibition of CD40L-induced CD86 expression on primary B-cells (FACS), PEGylated peptide: 5000 nM

## B7
[4]
  IC50 (read off the curve): ~300 nM
[5]
  IC50 (read off the curve): ~300 nM
[6]
  EC50, inhibition of CD40L-induced CD86 expression on primary B-cells: 306 nM
[7]
  EC50: 0.265 nM

## B8
[1]
  EC50, inhibition of CD40L-induced CD86 expression on primary B-cells (FACS), PEGylated peptide: > 2000 nM

## B9
CD40 on primary B-cells
  EC50, induction of CD86 expression on primary B-cells by CD40L: ~9 nM
CD40L M8_748
  Kd: 5 nM

## B10
[1]
  EC50, inhibition of CD40L-induced CD86 expression on primary B-cells (FACS), PEGylated peptide: 90 nM
